The supplement of paper PMC10567573

B1: FADS1 (parent)
chain: LNFQIEHHLFPTMPRHNYHKVAPL

Variants of: B1
Assay: protein stability index of a GFP-peptide fusion (GPS, HEK-293T) (PSI 1-6); higher = more stable
Conditions: c terminus: a fixed tail appended
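Note: lentivirally expressed fusions sorted by FACS into six bins by GFP to DsRed ratio, PSI derived from sequencing read proportions per bin multiplied by bin number.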

Variant	protein stability index
LNFQIEHHLFPLMPRHNYHKVAPL [T12L]	2.08
LNFQIEHHLFPKMPRHNYHKVAPL [T12K]	1.92
LNFQIEHHLFPQMPRHNYHKVAPL [T12Q]	1.99
LNFQIEHHLFPGMPRHNYHKVAPL [T12G]	1.47
LNFQIEHHLFPSMPRHNYHKVAPL [T12S]	2.65
LNFQIEHHLFPPMPRHNYHKVAPL [T12P]	3.45
LNFQIEHHLFPVMPRHNYHKVAPL [T12V]	2.29
LNFQIEHHLFPTMSRHNYHKVAPL [P14S]	2.71
LNFQIEHHLFPTMMRHNYHKVAPL [P14M]	2.44
LNFQIEHHLFPTMRRHNYHKVAPL [P14R]	1.76
LNFQIEHHLFPTMLRHNYHKVAPL [P14L]	1.18
LNFQIEHHLFPTMVRHNYHKVAPL [P14V]	2.38
LNFQIEHHLFPTMIRHNYHKVAPL [P14I]	2.08
LNFQIEHHLFPTMARHNYHKVAPL [P14A]	2.64
LNFQIEHHLFPTMGRHNYHKVAPL [P14G]	2.43
LNFCIEHHLFPTMPRHNYHKVAPL [Q4C]	1.86
LNFDIEHHLFPTMPRHNYHKVAPL [Q4D]	1.66
LNFFIEHHLFPTMPRHNYHKVAPL [Q4F]	2.52
LNFTIEHHLFPTMPRHNYHKVAPL [Q4T]	2.74
LNFEIEHHLFPTMPRHNYHKVAPL [Q4E]	2.25
LNFLIEHHLFPTMPRHNYHKVAPL [Q4L]	3.1
LNFAIEHHLFPTMPRHNYHKVAPL [Q4A]	1.44
LNFNIEHHLFPTMPRHNYHKVAPL [Q4N]	2.22
LCFQIEHHLFPTMPRHNYHKVAPL [N2C]	1.98

Variant	protein stability index
LWFQIEHHLFPTMPRHNYHKVAPL [N2W]	3.67
LKFQIEHHLFPTMPRHNYHKVAPL [N2K]	2.28
LNFQIEHHLFPTMPRHNYPKVAPL [H19P]	3.38
LNFQIEHHLFPTMPRHNYQKVAPL [H19Q]	2
LNFQIEHHLFPTMPRHNYWKVAPL [H19W]	3.52
LNFQIEHHLFPTMPRHNYYKVAPL [H19Y]	2.58
LNFQIEHHLFPTMPRHNYDKVAPL [H19D]	3.43
LNFQIEHHLFPTMPRHNYGKVAPL [H19G]	3.11
LNFQIEHHLFPTMPRHNYAKVAPL [H19A]	2.85
LNHQIEHHLFPTMPRHNYHKVAPL [F3H]	1.83
LNLQIEHHLFPTMPRHNYHKVAPL [F3L]	1.73
LNDQIEHHLFPTMPRHNYHKVAPL [F3D]	3.03
LNSQIEHHLFPTMPRHNYHKVAPL [F3S]	2.15
LNGQIEHHLFPTMPRHNYHKVAPL [F3G]	2.42
LNWQIEHHLFPTMPRHNYHKVAPL [F3W]	1.92
LNTQIEHHLFPTMPRHNYHKVAPL [F3T]	2.4
LNRQIEHHLFPTMPRHNYHKVAPL [F3R]	1.96
LNFQIEHHLFPTMPRMNYHKVAPL [H16M]	4.22
LNFQIEHHLFPTMPRVNYHKVAPL [H16V]	2.36
LNFQIEHHLFPTMPRFNYHKVAPL [H16F]	2.12
LNFQIEHHLFPTMPRINYHKVAPL [H16I]	2.46
LNFQIEHHLFPTMPRDNYHKVAPL [H16D]	3.61
LNFQIEHHLFPTMPRNNYHKVAPL [H16N]	2.2
LNFQIEHHLFPTMPRLNYHKVAPL [H16L]	1.96

Variant	protein stability index
LNFQIEHHLFPTMPRTNYHKVAPL [H16T]	1.77
LNFQIEHHLFPTMPRHNYHKVAPN [L24N]	2.15
LNFQIEHHLFPTMPRHNYHKVAPE [L24E]	2.33
LNFQIEHHLFPTMPRHNYHKVAPI [L24I]	3.69
LNFQIEHHLFPTMPRHNYHKVAPY [L24Y]	3.02
LNFQIEHHLFPTMPRHNYHKVAPR [L24R]	1.51
LNFQIEHHLFPTMPRHNYHKVAPA [L24A]	1.71
LNFQIEHHLFPTMPRHNYHKVACL [P23C]	1.88
LNFQIEHHLFPTMPRHNYHKVAWL [P23W]	2.27
LNFQIEHHLFPTMPRHNYHKVARL [P23R]	1.69
LNFQIEHHLFPTMPRHNYHKVANL [P23N]	2.09
LNFQIEHHLFPTMPRHNYHKVADL [P23D]	1.33
LNFQIEHHLFPTMPRHNYHKVAQL [P23Q]	2.63
LNFQIEHHLFPTMPRHNYHKVALL [P23L]	2.4
LNFQIEHHLQPTMPRHNYHKVAPL [F10Q]	1.92
LNFQIEHHLTPTMPRHNYHKVAPL [F10T]	1.39
LNFQIEHHLGPTMPRHNYHKVAPL [F10G]	2.73
LNFQIEHHLLPTMPRHNYHKVAPL [F10L]	1.55
LNFQIEHHLCPTMPRHNYHKVAPL [F10C]	2.71
LNFQIEHHLDPTMPRHNYHKVAPL [F10D]	1.74
LNFQIEHHLAPTMPRHNYHKVAPL [F10A]	2.17
LNFQIEHHIFPTMPRHNYHKVAPL [L9I]	2.01
LNFQIEHHRFPTMPRHNYHKVAPL [L9R]	1.87
LNFQIEHHWFPTMPRHNYHKVAPL [L9W]	3.23

Variant	protein stability index
LNFQIEHHFFPTMPRHNYHKVAPL [L9F]	3.13
LNFQIEHHTFPTMPRHNYHKVAPL [L9T]	1.42
LNFQIEHHCFPTMPRHNYHKVAPL [L9C]	1.72
LNFQIEHHVFPTMPRHNYHKVAPL [L9V]	2.37
LNFQIEHHYFPTMPRHNYHKVAPL [L9Y]	2.1
LNFQIEHHDFPTMPRHNYHKVAPL [L9D]	2.04
LNFQIEHHGFPTMPRHNYHKVAPL [L9G]	2.83
LNFQIEHHHFPTMPRHNYHKVAPL [L9H]	1.8
LNFQIEHHQFPTMPRHNYHKVAPL [L9Q]	1.34
LNFQIEHHLFPTMPRHNYHKVMPL [A22M]	3.28
LNFQIEHHLFPTMPRHNYHKVIPL [A22I]	3.37
LNFQIEHHLFPTMPRHNYHKVFPL [A22F]	1.78
LNFQIEHHLFPTMPRHNYHKVKPL [A22K]	1.89
LNFQIEHHLFPTMPRHNYHKVQPL [A22Q]	2.06
LNFQIEHHLFPTMPRHNYHKVVPL [A22V]	2.82
LNFQIEHHLFPTMPRHNYHKVRPL [A22R]	1.99
LNFQIEHHLFPTMPRHNYHKVGPL [A22G]	1.05
LNFQIEHHLFPTMPRHNYHKVEPL [A22E]	1.85
LNFQIEHHLFPTMPRHNYHKVYPL [A22Y]	2.21
LNFQIEHHLFPTMPRHNYHKVWPL [A22W]	2.34
LNFQIEHHLFPTMPRHNYHKVTPL [A22T]	2.09
LNFQIEHHLFPTMPRHNYHKVNPL [A22N]	1.69
